The text below walks through data of US20080081903A1, “METHOD FOR SCREENING TRANSCRIPTIONAL COREGULATORY PROTEINS OF TRANSCRIPTION FACTORS, AND ANDROGEN RECEPTOR TRANSCRIPTIONAL COREGULATORY PROTEINS AS TARGETS FOR ANDROGEN RECEPTOR-DEPENDENT DISEASES” (NEW YORK UNIVERSITY, priority 2001, published 2008).

Test [1] deals with T1, androgen receptor ligand-binding domain (579-901) (Rattus norvegicus, UniProt P15207).
T1 construct: expressed in transfected cells; host or cells: yeast (modified two-hybrid assay)
T1 sequence (P15207 579-901): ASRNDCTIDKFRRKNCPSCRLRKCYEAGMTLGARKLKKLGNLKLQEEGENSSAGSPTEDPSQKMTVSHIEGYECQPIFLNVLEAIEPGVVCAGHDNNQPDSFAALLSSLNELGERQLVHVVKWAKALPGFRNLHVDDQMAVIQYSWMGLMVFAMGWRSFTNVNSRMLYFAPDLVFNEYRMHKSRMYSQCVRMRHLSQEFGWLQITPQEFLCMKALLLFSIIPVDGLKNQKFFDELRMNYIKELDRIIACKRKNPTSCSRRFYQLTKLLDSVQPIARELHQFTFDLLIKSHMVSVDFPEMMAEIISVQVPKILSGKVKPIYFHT
The experiment in a line: Modified yeast two-hybrid specificity panel. The conditions noted are these: absence or presence of hormone.

The target in test [2] is T2, androgen receptor transcriptional activation (Homo sapiens, UniProt P10275).
T2 construct: The pcDNA3:hAR expression plasmid was used to produce full length human AR; expressed in transfected cells; host or cells: HeLa and PC-3 (both AR deficient)
T2 sequence (P10275 1-920): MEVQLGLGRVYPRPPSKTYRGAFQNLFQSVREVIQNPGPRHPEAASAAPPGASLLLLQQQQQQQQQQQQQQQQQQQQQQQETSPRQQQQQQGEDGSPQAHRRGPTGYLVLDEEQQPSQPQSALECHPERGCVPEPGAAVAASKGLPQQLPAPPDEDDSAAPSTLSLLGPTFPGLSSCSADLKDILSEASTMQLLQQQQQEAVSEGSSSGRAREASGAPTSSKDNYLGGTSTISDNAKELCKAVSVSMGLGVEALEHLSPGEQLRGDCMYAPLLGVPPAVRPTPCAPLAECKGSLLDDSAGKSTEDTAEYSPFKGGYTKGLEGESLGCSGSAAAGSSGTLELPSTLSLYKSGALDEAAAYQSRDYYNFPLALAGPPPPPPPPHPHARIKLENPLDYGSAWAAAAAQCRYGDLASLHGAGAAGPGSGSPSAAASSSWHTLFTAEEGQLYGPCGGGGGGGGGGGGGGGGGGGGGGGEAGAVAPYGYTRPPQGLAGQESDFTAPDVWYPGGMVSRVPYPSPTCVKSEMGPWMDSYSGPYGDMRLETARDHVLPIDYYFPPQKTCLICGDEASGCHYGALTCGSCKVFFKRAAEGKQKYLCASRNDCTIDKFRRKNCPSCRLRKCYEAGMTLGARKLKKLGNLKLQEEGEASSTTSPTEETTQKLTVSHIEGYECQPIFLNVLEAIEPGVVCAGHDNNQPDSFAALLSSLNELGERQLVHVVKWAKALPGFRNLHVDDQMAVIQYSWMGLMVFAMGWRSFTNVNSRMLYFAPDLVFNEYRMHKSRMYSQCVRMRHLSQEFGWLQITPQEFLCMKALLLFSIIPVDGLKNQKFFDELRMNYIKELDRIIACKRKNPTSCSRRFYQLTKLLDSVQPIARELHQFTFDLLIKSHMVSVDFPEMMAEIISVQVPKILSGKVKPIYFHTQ
The experiment in a line: Transient transfection, AR-responsive luciferase reporter assay. The class given is cell-based. The note with it: overexpressed in cultured mammalian cells. From the text: The two ART-27 derivatives used in the mammalian cell culture experiments were constructed as follows: using EcoRI-XhoI, ART-27 was subcloned from pEG202:ART-27 into a pcDNA3 vector that has an N-terminal HA epitope (pCDNA3-HA) in the same reading frame as the LexA moiety in pEG202 with respect to the EcoRI site; ART-271-127 was subcloned from pEG202:ART-271-127 into pcDNA3-HA, pJG4-5:Sp183-262, pJG4-5:Sp1263-542, pJG4-5:TAF130270-700, and pJG4-5:CREB3-296 were provided by N. Tanese (New York University School of Medicine, New York). pJG4-5:SRC-1374-800 was provided by H. Samuels (New York University School of Medicine, New York). pJG4-5:GR107-237 was previously described (Hittelman et al., 1999). The pJK103 reporter plasmid, which contains a single LexA operator linked to β-galactosidase, was used in all activity assays of the LexA fusion proteins and in the modified two-hybrid assay. The pΔ4X-LALO-luciferase reporter plasmid, which contains four LexA operators upstream of a minimal Drosophila alcohol dehydrogenase promoter linked to luciferase, was used in mammalian activity assays to monitor the intrinsic transcriptional activity of the LexA fusion proteins. […]
(In general: A reporter such as luciferase makes a cellular process visible.)

B1: ART-5: Androgen Receptor Trapped protein, SEQ ID NO:4, unknown function, represented in EST database (protein)
chain: MHNPDGSASPTADPGSELQTLGQAARRPPPPRAGHDAPRRTRPSARKPLSCFSRRPMPTREPPKTRGSRGHLHTHPPGPGPPLQGLAPRGLKTSAPRPPCQPQPGPHKAKTKKIVFEDELLSQALLGAKKPIGAIPKGHKPRPHPVPDYELKYPPVSSERERSRYVAVFQDQYGEFLELQHEVGCAQAKLRQLEALLSSLPPPQSQKEAQVAARVWREFEMKRMDPGFLDKQARCHYLKGKLRHLKTQIQKFDDQGDSEGSVYF
modifications: Human
Regarding B1, the “interaction with androgen receptor ligand binding domain” value in test [1] is given as “No interaction”. For the same molecule, the androgen receptor-dependent transactivation entry in test [2] is on record as “increase”.
